# Source: PMC7031059
# Where a chain is given by its changes, count along the chain named.
# B1: 6T (PpDAM6 promoter site-II) (dsDNA)
# DNA 1: GGTGGGCCCAATCAAGTGACATGACAGCGA
# DNA 2: TCGCTGTCATGTCACTTGATTGGGCCCACC
# B2: 5T2 (dsDNA)
# DNA 1: CATGTGTCATGGTGGGCTCAATCAAGTGGC
# DNA 2: GCCACTTGATTGAGCCCACCATGACACATG
# B3: 5mT2 (GGG to TTT) (dsDNA)
# DNA 1: B2 DNA 1 with G14T, G15T, G16T
# DNA 2: B2 DNA 2 with C15A, C16A, C17A
# B4: ABF2-F (PpABF2 promoter TBS) (dsDNA)
# DNA 1: ACCTAACCTAAGTGGGACCATGCCCTTTTT
# DNA 2: AAAAAGGGCATGGTCCCACTTAGGTTAGGT
# B5: 6mT (GGGCCC to AAATTT) (dsDNA)
# DNA 1: GGTAAATTTAATCAAGTGACATGACAGCGA
# DNA 2: TCGCTGTCATGTCACTTGATTAAATTTACC
# Biological target: PpTCP20-GST (Prunus persica var. nectarina cv. …, UniProt A0A251Q833 1-310)
# Assay: EMSA
row,Binder,binding result
1,B1,binds
2,B2,binds
3,B3,no binding
4,B4,binds
5,B5,no binding
